Data set [1] relates to COc1ccc([C@@H]2COc3cc(O)ccc3[C@@H]2O)c(O)c1. Description: medicarpin formation, chiral HPLC (RU-2). It is filed as biochemical, Glycyrrhiza echinata. Particulars: 0.1 M sodium phosphate pH 6.6, 30 °C, 5 min, BSA, racemic cis-DMI supplied. An excerpt:
(§1) medicarpin formation, chiral HPLC (RU-2) on GePTS1

Data set [2] concerns COc1ccc([C@H]2COc3cc(O)ccc3[C@@H]2O)c(O)c1. Description: medicarpin formation, chiral HPLC (RU-2). It is filed as biochemical, Glycyrrhiza echinata. Particulars: 0.1 M sodium phosphate pH 6.6, 30 °C, 5 min, BSA, racemic trans-DMI supplied.
Description: as §1

In data set [3] the test system is COc1ccc([C@@H]2COc3cc(O)ccc3[C@@H]2O)c(O)c1. Description: purified protein. Particulars: 0.1 M sodium phosphate pH 6.6, 30 °C, 5 min, BSA, racemic cis-DMI supplied, kinetics calculated on (3R,4R) conversion.
Data set [4] has as its system COc1ccc([C@H]2COc3cc(O)ccc3[C@@H]2O)c(O)c1. Description: purified protein. Particulars: 0.1 M sodium phosphate pH 6.6, 30 °C, 5 min, BSA, racemic trans-DMI supplied, kinetics calculated on (3S,4R) conversion.
The mark [5] stands for this setting: kinetics calculated on (3R,4R) conversion.
[6] abbreviates: kinetics calculated on (3S,4R) conversion.
Setting [7] is: (3R,4R) converted, pET100 construct.
Where [8] appears, read: (3S,4R) converted, pET100 construct.

Turning to GePTS1 (Glycyrrhiza echinata), in data set [1] (setting [5]), the Km (usually the concentration of substrate that gives half-maximal velocity) is 145 µM; the kcat (commonly the number of substrate molecules converted per active site and unit of time at saturation) was 59.9 s⁻¹; the kcat/Km (in general, the second-order rate constant that governs catalysis at low substrate concentration) is 413000 M⁻¹ s⁻¹. In data set [2] (setting [6]), the Km was 680 µM, the kcat is 15.9 s⁻¹ and the kcat/Km was 23400 M⁻¹ s⁻¹.
Take GePTS1 (Glycyrrhiza echinata; D50A): in data set [1] (setting [7]), the Km is 1,175 μM, the kcat is 4.9 s⁻¹ and the kcat/Km was 4180 M⁻¹ s⁻¹. Moreover, in data set [2] (setting [8]), the Km worked out at 520 µM, the kcat turned out to be 0.2 s⁻¹ and the kcat/Km came to 370 M⁻¹ s⁻¹.
Take GePTS1 (Glycyrrhiza echinata; D83A): in data set [1] (setting [7]), the Km is on record as 1,300 μM, the kcat was found to be 6.3 s⁻¹ and the kcat/Km was found to be 4870 M⁻¹ s⁻¹. In addition, in data set [2] (setting [8]), the Km was 665 µM, the kcat stood at 1.3 s⁻¹ and the kcat/Km turned out to be 1960 M⁻¹ s⁻¹.
As to GePTS1 (Glycyrrhiza echinata; Y103F), in data set [1] (setting [7]), the Km stood at 555 µM, the kcat is 6.9 s⁻¹ and the kcat/Km was 12300 M⁻¹ s⁻¹. Besides, in data set [2] (setting [8]), the Km is 3,320 μM, the kcat turned out to be 5.9 s⁻¹ and the kcat/Km turned out to be 1830 M⁻¹ s⁻¹.
GePTS1 (Glycyrrhiza echinata; Y181F): in data set [1] (setting [7]), the Km was determined as 825 µM, the kcat was found to be 5.2 s⁻¹ and the kcat/Km amounted to 6310 M⁻¹ s⁻¹. Also, in data set [2] (setting [8]), the Km is reported as 5,665 μM, the kcat came out at 4 s⁻¹ and the kcat/Km was 710 M⁻¹ s⁻¹.
For PsPTS1 (Lathyrus oleraceus), in data set [3], the Km is 890 µM, the kcat was 50.5 s⁻¹ and the kcat/Km was 56800 M⁻¹ s⁻¹. Also, in data set [4], the Km is 830 µM, the kcat was 3.3 s⁻¹ and the kcat/Km is 3930 M⁻¹ s⁻¹.

Source of the values: paper PMC7450108, “Pterocarpan synthase (PTS) structures suggest a common quinone methide–stabilizing function in dirigent proteins and proteins with dirigent-like domains” (The Journal of Biological Chemistry, 2020).
